According to doi:10.1101/2023.12.07.570680:

Legend:
EMB976-MBP = molecular target: T1, EMB976-MBP (Arabidopsis thaliana, UniProt O04647 1-1038); assay: EMSA
T1 sequence: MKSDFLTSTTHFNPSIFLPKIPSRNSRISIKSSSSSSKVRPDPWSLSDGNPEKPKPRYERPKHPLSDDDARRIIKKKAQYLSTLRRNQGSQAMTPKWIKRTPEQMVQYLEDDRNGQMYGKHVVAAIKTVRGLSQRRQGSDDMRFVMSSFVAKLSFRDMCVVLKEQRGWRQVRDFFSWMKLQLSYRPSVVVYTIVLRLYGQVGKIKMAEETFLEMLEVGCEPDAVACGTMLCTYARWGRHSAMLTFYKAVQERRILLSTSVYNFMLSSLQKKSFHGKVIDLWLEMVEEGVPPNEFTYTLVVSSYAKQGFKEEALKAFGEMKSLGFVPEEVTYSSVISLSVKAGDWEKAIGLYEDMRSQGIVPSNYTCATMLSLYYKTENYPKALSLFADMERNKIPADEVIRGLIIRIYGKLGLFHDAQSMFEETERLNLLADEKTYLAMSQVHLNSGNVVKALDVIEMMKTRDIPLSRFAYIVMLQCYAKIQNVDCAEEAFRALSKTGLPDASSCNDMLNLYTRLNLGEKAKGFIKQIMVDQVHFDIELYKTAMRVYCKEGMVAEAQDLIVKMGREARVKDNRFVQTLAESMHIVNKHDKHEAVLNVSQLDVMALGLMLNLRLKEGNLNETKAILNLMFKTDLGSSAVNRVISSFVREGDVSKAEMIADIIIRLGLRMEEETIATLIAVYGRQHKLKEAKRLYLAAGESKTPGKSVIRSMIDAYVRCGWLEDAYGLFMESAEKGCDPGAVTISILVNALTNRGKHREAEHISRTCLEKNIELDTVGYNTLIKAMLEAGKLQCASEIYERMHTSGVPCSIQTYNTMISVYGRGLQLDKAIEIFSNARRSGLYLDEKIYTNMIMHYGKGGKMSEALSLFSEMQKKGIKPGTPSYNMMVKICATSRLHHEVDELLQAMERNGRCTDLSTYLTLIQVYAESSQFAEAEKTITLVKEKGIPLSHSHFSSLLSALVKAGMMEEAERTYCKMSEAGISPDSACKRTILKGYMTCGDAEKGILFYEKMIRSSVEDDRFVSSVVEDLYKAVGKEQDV

EMB1006-MBP [1] = molecular target: T2, EMB1006-MBP (Arabidopsis thaliana, UniProt Q9FGR7 44-723); assay: EMSA
T2 sequence: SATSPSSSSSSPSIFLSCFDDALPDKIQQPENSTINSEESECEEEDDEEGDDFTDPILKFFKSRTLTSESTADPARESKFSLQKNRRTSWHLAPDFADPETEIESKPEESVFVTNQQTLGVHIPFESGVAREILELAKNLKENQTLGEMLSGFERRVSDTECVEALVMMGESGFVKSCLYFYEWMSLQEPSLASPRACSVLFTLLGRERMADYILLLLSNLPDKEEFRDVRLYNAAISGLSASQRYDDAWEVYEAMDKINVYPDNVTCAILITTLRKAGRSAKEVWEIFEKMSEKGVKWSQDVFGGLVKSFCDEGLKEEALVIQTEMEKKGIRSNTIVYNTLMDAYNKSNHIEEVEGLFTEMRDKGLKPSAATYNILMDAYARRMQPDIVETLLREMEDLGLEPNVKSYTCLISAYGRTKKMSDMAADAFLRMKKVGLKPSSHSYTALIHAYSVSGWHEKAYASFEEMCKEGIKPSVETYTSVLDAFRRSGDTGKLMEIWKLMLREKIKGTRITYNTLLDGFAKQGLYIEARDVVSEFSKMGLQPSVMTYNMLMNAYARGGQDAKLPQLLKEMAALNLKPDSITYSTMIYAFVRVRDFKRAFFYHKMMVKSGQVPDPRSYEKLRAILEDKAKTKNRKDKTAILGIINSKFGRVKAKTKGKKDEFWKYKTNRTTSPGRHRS

EMB1006-MBP [2] = molecular target: T2, EMB1006-MBP; assay: competition

GAAGAGGUUUUUCAAAUGAUA (ssRNA) [Cy5-clpP1-intron2-976]: no binding (EMB976-MBP).

AAUUACCAAACGUAUAGCAUUCC (ssRNA) [Cy5-clpP1-exon2]: binds (EMB1006-MBP [1]).

UUUUUUAGAUUAAAAAAAAAUUCG (ssRNA) [clpP1-intron2-Cold]: no binding (EMB1006-MBP [2]).

AAUUACCAAACGUAUAGCAUUCC (ssRNA) [clpP1-exon2-Cold]: binds (EMB1006-MBP [2]).
